Reference: article PMC2169300, “Signal-Regulated Pre-mRNA Occupancy by the General Splicing Factor U2AF”

Experiments:
His-Sam68 [1] = target: T1, His-Sam68 (mouse, UniProt Q60749 1-443); experiment: EMSA; dose-dependent; EMSA as described in cited ref [19]; buffer, salt, pH and temperature not given; conditions: protein: recombinant; tags: His (pQE-32); chain copies: 2
His-Sam68 [2] = target: T1, His-Sam68; experiment: EMSA; 25 and 50 ng protein; EMSA as described in cited ref [19]; buffer, salt, pH and temperature not given; conditions: protein: recombinant; tags: His (pQE-32); chain copies: 2

T1 sequence (Q60749 whole entry): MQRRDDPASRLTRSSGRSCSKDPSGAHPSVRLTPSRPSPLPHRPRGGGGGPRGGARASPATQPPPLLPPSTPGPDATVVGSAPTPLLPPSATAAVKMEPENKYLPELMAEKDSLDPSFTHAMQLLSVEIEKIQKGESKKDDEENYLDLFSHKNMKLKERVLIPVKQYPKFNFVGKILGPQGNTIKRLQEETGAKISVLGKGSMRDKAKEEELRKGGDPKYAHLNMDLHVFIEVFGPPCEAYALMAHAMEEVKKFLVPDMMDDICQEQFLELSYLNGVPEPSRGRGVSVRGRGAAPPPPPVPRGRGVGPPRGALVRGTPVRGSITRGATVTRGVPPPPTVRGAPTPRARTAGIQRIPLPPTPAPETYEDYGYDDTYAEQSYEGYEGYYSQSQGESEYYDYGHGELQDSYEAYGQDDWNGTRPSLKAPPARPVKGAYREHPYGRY

Binder	binding result (His-Sam68 [1])	binding result (His-Sam68 [2])
GAAGAAGAGGAUUAUUAAAGACUAUUUGAUUAGA (ssRNA) [CD44 intronic Sam68 site RNA (wt)]	binds	–
AUAGACAGAAUCAGCACCAGUGCUCAUGGAGAAAAUUGGACC (ssRNA) [CD44 v5 exonic Sam68 site RNA]	–	binds
